Test results: the supplement of paper PMC9112550, “Optimization of the antimicrobial peptide Bac7 by deep mutational scanning” (BMC Biology, 2022)

Tested on: Escherichia coli TOP10
Assay: shrunken log2 fold change of peptide-encoding DNA abundance (4.5 h post-induction vs induction); higher = less antimicrobial activity (less host growth inhibition)
Details: time post-induction: 4.5 h; library: site-saturation at positions 5, 18, 19, 20
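Also: peptides expressed intracellularly from a pBAD plasmid library in pooled LB shake-flask culture, induced with 0.3% L-arabinose, DNA abundance read by NGS, three biological replicates, DESeq2 with apeglm shrinkage.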

Sequence | shrunken log2 fold change
RRIRKRPPRLPRPRPRPYCNPRP | 0.068
RRIRKRPPRLPRPRPRPYDSPRP | 0.0392
RRIRKRPPRLPRPRPRPYEGPRP | -0.0017
RRIRKRPPRLPRPRPRPYESPRP | 0.0419
RRIRKRPPRLPRPRPRPYFGPRP | -0.711
RRIRKRPPRLPRPRPRPYFKPRP | -0.382
RRIRKRPPRLPRPRPRPYFTPRP | -0.0968
RRIRKRPPRLPRPRPRPYGDPRP | -0.224
RRIRKRPPRLPRPRPRPYITPRP | -0.548
RRIRKRPPRLPRPRPRPYKTPRP | -0.227
RRIRKRPPRLPRPRPRPYLGPRP | -0.0981
RRIRKRPPRLPRPRPRPYLKPRP | -0.525
RRIRKRPPRLPRPRPRPYMYPRP | -0.445
RRIRKRPPRLPRPRPRPYPMPRP | -0.2
RRIRKRPPRLPRPRPRPYPPPRP | -0.289
RRIRKRPPRLPRPRPRPYPRPRP | -0.00783
RRIRKRPPRLPRPRPRPYQQPRP | -0.00547
RRIRKRPPRLPRPRPRPYRTPRP | -0.224
RRIRKRPPRLPRPRPRPYSLPRP | -0.0434
RRIRKRPPRLPRPRPRPYSWPRP | 0.0046
RRIRKRPPRLPRPRPRPYTAPRP | -0.338
RRIRKRPPRLPRPRPRPYTDPRP | -0.0224
RRIRKRPPRLPRPRPRPYVMPRP | -0.223
RRIRKRPPRLPRPRPRPYWVPRP | -0.306
RRIRKRPPRLPRPRPRPYYQPRP | -0.194

Sequence | shrunken log2 fold change
RRIRKRPPRLPRPRPRPYYWPRP | -0.281
RRIRLRPPRLPRPRPRPAADPRP | 0.832
RRIRLRPPRLPRPRPRPACAPRP | 0.541
RRIRLRPPRLPRPRPRPACCPRP | 0.0218
RRIRLRPPRLPRPRPRPACDPRP | 0.15
RRIRLRPPRLPRPRPRPACHPRP | 0.186
RRIRLRPPRLPRPRPRPACQPRP | -0.0858
RRIRLRPPRLPRPRPRPADLPRP | 0.0231
RRIRLRPPRLPRPRPRPAEDPRP | -0.00769
RRIRLRPPRLPRPRPRPAEWPRP | 0.0143
RRIRLRPPRLPRPRPRPAFCPRP | 0.289
RRIRLRPPRLPRPRPRPAFHPRP | -0.0947
RRIRLRPPRLPRPRPRPAGCPRP | 0.263
RRIRLRPPRLPRPRPRPAIAPRP | 0.118
RRIRLRPPRLPRPRPRPAIYPRP | -1.28
RRIRLRPPRLPRPRPRPAKIPRP | -0.143
RRIRLRPPRLPRPRPRPAKQPRP | 0.0963
RRIRLRPPRLPRPRPRPALVPRP | -0.0636
RRIRLRPPRLPRPRPRPAMIPRP | -0.223
RRIRLRPPRLPRPRPRPANMPRP | -0.0319
RRIRLRPPRLPRPRPRPANTPRP | -0.124
RRIRLRPPRLPRPRPRPAQWPRP | -0.0397
RRIRLRPPRLPRPRPRPARAPRP | 0.268
RRIRLRPPRLPRPRPRPARVPRP | 0.329
RRIRLRPPRLPRPRPRPAVFPRP | 0.142

Sequence | shrunken log2 fold change
RRIRLRPPRLPRPRPRPAVPPRP | 0.3
RRIRLRPPRLPRPRPRPAWDPRP | 0.0108
RRIRLRPPRLPRPRPRPAWWPRP | 0.173
RRIRLRPPRLPRPRPRPAWYPRP | 0.0232
RRIRLRPPRLPRPRPRPCDKPRP | -0.304
RRIRLRPPRLPRPRPRPCDYPRP | -0.191
RRIRLRPPRLPRPRPRPCEQPRP | 0.0377
RRIRLRPPRLPRPRPRPCFGPRP | -0.0493
RRIRLRPPRLPRPRPRPCHFPRP | -0.285
RRIRLRPPRLPRPRPRPCIVPRP | -0.641
RRIRLRPPRLPRPRPRPCLAPRP | -0.219
RRIRLRPPRLPRPRPRPCLGPRP | -0.25
RRIRLRPPRLPRPRPRPCLKPRP | -0.682
RRIRLRPPRLPRPRPRPCNAPRP | -0.129
RRIRLRPPRLPRPRPRPCPYPRP | 0.0232
RRIRLRPPRLPRPRPRPCQTPRP | -0.0348
RRIRLRPPRLPRPRPRPCRNPRP | -0.241
RRIRLRPPRLPRPRPRPCTFPRP | -0.0569
RRIRLRPPRLPRPRPRPCTLPRP | -0.328
RRIRLRPPRLPRPRPRPCVVPRP | -0.457
RRIRLRPPRLPRPRPRPCVYPRP | -0.352
RRIRLRPPRLPRPRPRPCYRPRP | -0.145
RRIRLRPPRLPRPRPRPCYYPRP | -0.936
RRIRLRPPRLPRPRPRPDAKPRP | 0.0577
RRIRLRPPRLPRPRPRPDDDPRP | 0.129
